{
  "source": "patent US9566335",
  "binders": {"B1": {"name": "Phage displayed wild-type E. coli ClpS (truncated wildtype ClpS polypeptide, FLAG-tagged, fused to phage coat protein p3) (protein)", "chain": "KPPSMYKVILVNDDYTPMEFVIDVLQKFFSYDVERATQLMLAVHYQGKAICGVFTAEVAETKVAMVNKYARENEHPLLCTLEKA"}},
  "key": {"[1]": {"molecular_target": "biotinylated peptide X-…(biotin), X = A", "assay": "phage ELISA, biotinylated peptide on neutravidin"}, "[2]": {"molecular_target": "biotinylated peptide X-…(biotin), X = C", "assay": "phage ELISA, biotinylated peptide on neutravidin"}, "[3]": {"molecular_target": "biotinylated peptide X-…(biotin), X = D", "assay": "phage ELISA, biotinylated peptide on neutravidin"}, "[4]": {"molecular_target": "biotinylated peptide X-…(biotin), X = E", "assay": "phage ELISA, biotinylated peptide on neutravidin"}, "[5]": {"molecular_target": "biotinylated peptide X-…(biotin), X = G", "assay": "phage ELISA, biotinylated peptide on neutravidin"}, "[6]": {"molecular_target": "biotinylated peptide X-…(biotin), X = H", "assay": "phage ELISA, biotinylated peptide on neutravidin"}, "[7]": {"molecular_target": "biotinylated peptide X-…(biotin), X = I", "assay": "phage ELISA, biotinylated peptide on neutravidin"}, "[8]": {"molecular_target": "biotinylated peptide X-…(biotin), X = K", "assay": "phage ELISA, biotinylated peptide on neutravidin"}, "[9]": {"molecular_target": "biotinylated peptide X-…(biotin), X = M", "assay": "phage ELISA, biotinylated peptide on neutravidin"}, "[10]": {"molecular_target": "biotinylated peptide X-…(biotin), X = N", "assay": "phage ELISA, biotinylated peptide on neutravidin"}, "[11]": {"molecular_target": "biotinylated peptide X-…(biotin), X = P", "assay": "phage ELISA, biotinylated peptide on neutravidin"}, "[12]": {"molecular_target": "biotinylated peptide X-…(biotin), X = Q", "assay": "phage ELISA, biotinylated peptide on neutravidin"}, "[13]": {"molecular_target": "biotinylated peptide X-…(biotin), X = R", "assay": "phage ELISA, biotinylated peptide on neutravidin"}, "[14]": {"molecular_target": "biotinylated peptide X-…(biotin), X = S", "assay": "phage ELISA, biotinylated peptide on neutravidin"}, "[15]": {"molecular_target": "biotinylated peptide X-…(biotin), X = T", "assay": "phage ELISA, biotinylated peptide on neutravidin"}, "[16]": {"molecular_target": "biotinylated peptide X-…(biotin), X = V", "assay": "phage ELISA, biotinylated peptide on neutravidin"}, "[17]": {"molecular_target": "biotinylated peptide X-…(biotin), X = A", "assay": "phage ELISA, biotinylated peptide on neutravidin; phage 10×"}, "[18]": {"molecular_target": "biotinylated peptide X-…(biotin), X = C", "assay": "phage ELISA, biotinylated peptide on neutravidin; phage 10×"}, "[19]": {"molecular_target": "biotinylated peptide X-…(biotin), X = D", "assay": "phage ELISA, biotinylated peptide on neutravidin; phage 10×"}, "[20]": {"molecular_target": "biotinylated peptide X-…(biotin), X = E", "assay": "phage ELISA, biotinylated peptide on neutravidin; phage 10×"}, "[21]": {"molecular_target": "biotinylated peptide X-…(biotin), X = G", "assay": "phage ELISA, biotinylated peptide on neutravidin; phage 10×"}, "[22]": {"molecular_target": "biotinylated peptide X-…(biotin), X = H", "assay": "phage ELISA, biotinylated peptide on neutravidin; phage 10×"}, "[23]": {"molecular_target": "biotinylated peptide X-…(biotin), X = I", "assay": "phage ELISA, biotinylated peptide on neutravidin; phage 10×"}, "[24]": {"molecular_target": "biotinylated peptide X-…(biotin), X = K", "assay": "phage ELISA, biotinylated peptide on neutravidin; phage 10×"}, "[25]": {"molecular_target": "biotinylated peptide X-…(biotin), X = M", "assay": "phage ELISA, biotinylated peptide on neutravidin; phage 10×"}, "[26]": {"molecular_target": "biotinylated peptide X-…(biotin), X = N", "assay": "phage ELISA, biotinylated peptide on neutravidin; phage 10×"}, "[27]": {"molecular_target": "biotinylated peptide X-…(biotin), X = P", "assay": "phage ELISA, biotinylated peptide on neutravidin; phage 10×"}, "[28]": {"molecular_target": "biotinylated peptide X-…(biotin), X = Q", "assay": "phage ELISA, biotinylated peptide on neutravidin; phage 10×"}, "[29]": {"molecular_target": "biotinylated peptide X-…(biotin), X = R", "assay": "phage ELISA, biotinylated peptide on neutravidin; phage 10×"}, "[30]": {"molecular_target": "biotinylated peptide X-…(biotin), X = S", "assay": "phage ELISA, biotinylated peptide on neutravidin; phage 10×"}, "[31]": {"molecular_target": "biotinylated peptide X-…(biotin), X = T", "assay": "phage ELISA, biotinylated peptide on neutravidin; phage 10×"}, "[32]": {"molecular_target": "biotinylated peptide X-…(biotin), X = V", "assay": "phage ELISA, biotinylated peptide on neutravidin; phage 10×"}},
  "data": [
    {"binder": "B1", "values": [
      {"measurement": "phage ELISA signal (A450)", "setting": "[1]", "result": -0.29},
      {"measurement": "phage ELISA signal (A450)", "setting": "[2]", "result": -0.23},
      {"measurement": "phage ELISA signal (A450)", "setting": "[3]", "result": -0.29},
      {"measurement": "phage ELISA signal (A450)", "setting": "[4]", "result": -0.26},
      {"measurement": "phage ELISA signal (A450)", "setting": "[5]", "result": -0.04},
      {"measurement": "phage ELISA signal (A450)", "setting": "[6]", "result": -0.03},
      {"measurement": "phage ELISA signal (A450)", "setting": "[7]", "result": -0.016},
      {"measurement": "phage ELISA signal (A450)", "setting": "[8]", "result": 0.05},
      {"measurement": "phage ELISA signal (A450)", "setting": "[9]", "result": -0.11},
      {"measurement": "phage ELISA signal (A450)", "setting": "[10]", "result": -0.05},
      {"measurement": "phage ELISA signal (A450)", "setting": "[11]", "result": -0.07},
      {"measurement": "phage ELISA signal (A450)", "setting": "[12]", "result": -0.18},
      {"measurement": "phage ELISA signal (A450)", "setting": "[13]", "result": 0.13},
      {"measurement": "phage ELISA signal (A450)", "setting": "[14]", "result": -0.01},
      {"measurement": "phage ELISA signal (A450)", "setting": "[15]", "result": 0.01},
      {"measurement": "phage ELISA signal (A450)", "setting": "[16]", "result": -0.09},
      {"measurement": "phage ELISA signal (A450)", "setting": "[17]", "result": -0.29},
      {"measurement": "phage ELISA signal (A450)", "setting": "[18]", "result": -0.23},
      {"measurement": "phage ELISA signal (A450)", "setting": "[19]", "result": -0.29},
      {"measurement": "phage ELISA signal (A450)", "setting": "[20]", "result": -0.26},
      {"measurement": "phage ELISA signal (A450)", "setting": "[21]", "result": -0.04},
      {"measurement": "phage ELISA signal (A450)", "setting": "[22]", "result": -0.03},
      {"measurement": "phage ELISA signal (A450)", "setting": "[23]", "result": -0.16},
      {"measurement": "phage ELISA signal (A450)", "setting": "[24]", "result": 0.05},
      {"measurement": "phage ELISA signal (A450)", "setting": "[25]", "result": -0.11},
      {"measurement": "phage ELISA signal (A450)", "setting": "[26]", "result": -0.05},
      {"measurement": "phage ELISA signal (A450)", "setting": "[27]", "result": -0.07},
      {"measurement": "phage ELISA signal (A450)", "setting": "[28]", "result": -0.18},
      {"measurement": "phage ELISA signal (A450)", "setting": "[29]", "result": 0.13},
      {"measurement": "phage ELISA signal (A450)", "setting": "[30]", "result": -0.01},
      {"measurement": "phage ELISA signal (A450)", "setting": "[31]", "result": 0.01},
      {"measurement": "phage ELISA signal (A450)", "setting": "[32]", "result": -0.09}
    ]}
  ]
}
